According to publication PMC2944808 (2010):

Target: T1, Chordin VWC2 (UniProt Q9H2X0)
T1 chain: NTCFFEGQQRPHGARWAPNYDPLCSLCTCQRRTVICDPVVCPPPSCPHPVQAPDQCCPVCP
Test: SPR

Kd: 5 nM
B1: Crossveinless-2 (protein)
chain: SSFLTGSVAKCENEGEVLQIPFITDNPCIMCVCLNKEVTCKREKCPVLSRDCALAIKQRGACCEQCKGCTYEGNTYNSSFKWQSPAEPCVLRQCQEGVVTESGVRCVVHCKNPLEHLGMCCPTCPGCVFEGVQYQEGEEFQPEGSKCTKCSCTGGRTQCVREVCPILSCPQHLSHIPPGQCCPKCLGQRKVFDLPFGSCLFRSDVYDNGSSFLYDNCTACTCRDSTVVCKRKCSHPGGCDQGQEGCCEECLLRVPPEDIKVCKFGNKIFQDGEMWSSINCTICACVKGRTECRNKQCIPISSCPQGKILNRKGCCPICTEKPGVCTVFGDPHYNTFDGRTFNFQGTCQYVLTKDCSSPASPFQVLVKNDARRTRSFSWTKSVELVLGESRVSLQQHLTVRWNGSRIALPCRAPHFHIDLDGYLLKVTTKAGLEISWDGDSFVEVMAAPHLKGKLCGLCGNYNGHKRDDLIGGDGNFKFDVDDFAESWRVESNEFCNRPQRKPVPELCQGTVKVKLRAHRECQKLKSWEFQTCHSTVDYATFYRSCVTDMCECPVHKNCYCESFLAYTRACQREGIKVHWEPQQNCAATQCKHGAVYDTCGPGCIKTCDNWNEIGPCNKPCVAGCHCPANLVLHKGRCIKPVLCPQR
